Test results from patent US11572408B2, “Treatment of cancer with a semaphorin-4D antibody in combination with an epigenetic modulating agent” (Vaccinex, Inc., priority 2017, dated 2023).

Tests used:
Type in all cases: in vivo, Balb/c mice
Colon26 cells [1] = assay: Example 2: Colon26 subcutaneous tumor mouse model, ENT and anti-SEMA4D MAb
Protocol: Colon26 cells (500,000 cells) were implanted subcutaneously into Balb/c mice. […] Statistical significance was determined using 2-way ANOVA, Mantel Cox Log Rank test, and Fisher's exact test, respectively. Prism reports results as non-significant (ns) at P>0.05, significant (symbolized by “*”) at 0.01<P≤0.05, very significant (“**”) at 0.001<P≤0.01, and extremely significant (“***”) at P≤0.001.

Colon26 cells [2] = assay: Example 1: Colon26 subcutaneous tumor mouse model, ENT and anti-SEMA4D MAb; conditions: MAb 67 10 mg/kg ip weekly x5 from day 2, ENT 20 mg/kg 3x/week x2 weeks from tumor volume ~300 mm^3, FIG. 2A
Protocol: Colon26 cells (500,000 cells) were implanted subcutaneously into Balb/c mice. […] Kaplan-Meier survival analysis was performed to assess survival function, change in tumor volume was measured to determine tumor growth rates, and frequency of complete tumor regression was evaluated by determining the percentage of tumor-free mice. Percent complete regression (% CR) was also stratified by tumors that exceeded at least 100 mm^3 before regressing. Statistical significance was determined using Mantel Cox Log Rank test for survival, 2-way ANOVA for tumor volume, and Fisher's exact test for CR. Prism reports results as non-significant (ns) at P>0.05, significant (symbolized by “*”) at 0.01<P≤0.05, very significant (“**”) at 0.001<P≤0.01, extremely significant (“***”) at P≤0.001, and highest significance (“****”) at P≤0.0001.

Colon26 cells [3] = assay: Example 3: Colon26 subcutaneous tumor mouse model, AZA and anti-SEMA4D MAb; conditions: MAb 67 10 mg/kg ip weekly x4 from day 2, AZA 0.8 mg/kg 3x/week x4 doses from tumor volume ~200 mm^3, FIG. 5A
Protocol: Colon26 cells (500,000 cells) were implanted subcutaneously into Balb/c mice.
Kaplan-Meier survival analysis was performed to assess survival function, change in tumor volume was measured to determine tumor growth rates, and frequency of complete tumor regression was evaluated by determining the percentage of tumor-free mice.

| Molecule | frequency of complete tumor regression (Colon26 cells [1]; Fisher's exact test) | maximal tumor growth delay (TGD) (Colon26 cells [2]) | maximal tumor growth delay (TGD) (Colon26 cells [1]; MAb 67 10 mg/kg weekly x5 from day 2, ENT 20 mg/kg 3x/week x2 weeks from tumor volume ~250 mm^3, FIG. 3A) | maximal tumor growth delay (TGD) (Colon26 cells [3]) |
| --- | --- | --- | --- | --- |
| Nc1ccccc1NC(=O)c1ccc(CNC(=O)OCc2cccnc2)cc1 [ENT, pyridin-3-ylmethyl N-[[4-[(2-aminophenyl)carbamoyl]phenyl]methyl] carbamate, reference compound] | 25% | 214% |  |  |
| anti-SEMA4D/MAb 67: anti-SEMA4D monoclonal antibody, VH SEQ ID NO: 9 and VL SEQ ID NO: 10 (antibody, V domains shown, Mab 67 VH; Mab 67 VL) VH: QVQLQQSGPELVKPGASVKISCKASGYSFSDYYMHWVKQSPENSLEWIGQINPTTGGASYNQKFKGKATLTVDKSSSTAYMQLKSLTSEESAVYYCTRYYYGRHFDVWGQGTTVTVSS VL: DIVMTQSPASLAVSLGQRATISCKASQSVDYDGDSYMNWYQQKPGQPPKLLIYAASNLESGIPARFSGSGSGTDFTLNIHPVEEEDAATYYCQQSNEDPYTFGGGTKLEIK |  | 107% | 119% | 119% |
